Experimental findings from a protein production outcome set (Wang et al. 2014) are described below.

The data set is described as follows: label from the status in PepcDB records.
On to “MVQSSVRRKGARPRDRQTGEPGWDDSLYDDNGEPVQDGRGSGRGGGSAQGGGDGDGPPDEAKGHSRHGGGRRRGGKGDGGGGRPRRRRRVLRWSATVLAVLILGTAGAGYLYYQHLNDNIKKDDLYLGDDKDRAAKPKANAAGQTPLNILLIGSDARDSAANQKLGGAKDTYGGTPRADVQMLLHLSADRSNMSVVSMPRDTLLEIPKCTDPKTSHTYAAITYPTMTNNSLGRGGPGCTVATWEKFTDIHIDHFMMVDFAGVVSMADAIGGVPVCVDANIYSHTSTGHGSGLKLKDGTTSIKGKQALQWLRTRYGFEDGSDIGRTKAQHQYMNSMVRQLRENATLSNPNKLRKLAETATNALTVDDGLGTVSKLYDLSKELKKVPTSRITMTTMPWVYSSDGNRVLPKPNDAAKVFRLLREDIALDGKDKKKSPAQKAVAPAHADDKIAVQVQNGTRTSALAPVGGRANAMAQLLVGKGFTGAAADSSTVLSEDKTVIRYPSADLKGDAQRVAKSLGVPLSSVEKSASVSGVTLIVGGDWRSGTTYKAAEDDDTTPASAKLDKGSDTGACMHVDPDYTWS”, for which the protein production result is “failed”.

Regarding “SVSLVGPAPWGFRLQGGKDFNMPLTISSLKDGGKASQAHVRIGDVVLSIDGISAQGMTHLEAQNKIKACTGSLNMTLQRASAAAKSEPVS”, the protein production result was “not failed”.

With “MLSRIDLYIKHRDIFLKHLELLHKLIEKVEDSSLNESELLNARLVDDMFPFNVQAKIATNFALRACCPLSGKEYKELEGDIDSFCGLKTYVVTAIDYINKLSEPTLEQLNLNVQDTAGFKEISMPASEYMSSFVLPNFFFHISMVYAIAKNNGVSVTKGDFDGIHQYPKGFSWEA”, the protein production result is “not failed”.

On to “MRRSGAASRPASRGARTAYIGAMSRSTPPATTRIVCIRHGESTFNAHHEATGRDPGHIDARLSERGHAQVAAARAALRAIPFELVVTSPLTRALQTTAGIFSDHPARPDVLVEVLHRECQESSCDIGRAASVLAQEFPAFKVGHLPETWWYADGEAGPDGWHVEPRTLFDQRVSGFRDWLRARPERTIGVVGHCTFFYHLTGRWLANCEALDVDLTAEPRPRAYG”, for which the protein production entry is “failed”.

For “MGKMRTPQEVPARLDALAEAARKLKFDVREPVDAGAGAIGAVHSLDYLRFLREAHARWKQLPDDWGDEVVSNVFVREPNALRGVLAQAARYLADGSCPVGPHTWQSAYWAAQCAISGAQTLLDGERHAYALCRPPGHHARRDAAGGFCYLNNAAIAAQMLTQRYKRVAILDTDMHHGQGIQEIFYERSDVLYVSIHGDPENFYPVVAGFENERGAGEGYGYNVNLPMPHGSPEPVFFDRLQQAQRAIELFQPDALVLSLGFDVFEKDPQAMVAVSANGFERLGQAIGAFKLPTLIVQEGGYYIEGLEDNAERFFAGLAKALEHHHHHH”, the protein production result is given as “failed”.

For the sequence “MAKPIRVLLYYKYVPIENAEQFAADHLAFCKSIGLKGRILVADEGINGTVSGEYETTQKYMDYVHSLPGMEDLWFKIDEEEEQAFKKMFVRYKKEIVHLGLEDNNFDSDINPLETTGAYLSPKEFKDALLDEDTVVLDTRNDYEYDLGHFRGAIRPDIRNFRELPQWVRDHKEEFMDKRVVVYCTGGVRCEKFSGWLVREGYKDVGQLHGGIVTYGKDPEVQGELWDGKLYVFDERIAVDVNHVDPIVVGKDWFDGTPCERYVNCGNPFCNRRILTSEENEDKYLRGCSHECRVHPRNRYVSENDLSQEEVVERLAAIGESLDVTPA”, the protein production entry is reported as “failed”.

As to “MCRSIRLTAMAAFLVIMGGAACSGKPVLPDLTLEGGDRSYSELITAQQHSFSIHTPSDAPLENSSIRIEVNEGESLTPRLRSSGSVDCSSLASVVAGVVAPGMTAEEKALALWRFVMDSCYHGRWGTSLDGLEHLNVYGYGYCGTYAAVLESLWWTAGLTARHVNIGNHAATEVYYNNDWHYIDADTRTYFLLKDNRTIASLDELNDNVELWTMLRRGSSRKAGKKYYYMTMHPNGHGRSPVYTNDFTMAKGDVLTLDWQSRGKWCLNRGQEGGKEPAGEPPFYGNGLFTFHRDFKDRSQSRSGLVSSTNIDWQDAAAGYLHPQHAKQEASLVYRVKTPYFIPETTLSGSFFRKGTGDSAAIDISTDNGKRWVSLWRADATGTVKASVVTAQTQQVTTDVPWKYSYLMRLRMRAGKSPRDVGAYHLDSASVLAYNPRCLPALRPGDNRITFSDGSQARRTVRVTYNWHDDLPITLSKETPFEGEEITVSARVTNRGAAEAHNVPVAVYLGNPAQGGVEIGRDTISRIPVGGTGLARVQWKATRKLAGRAANPGVPVYAVVDPDNRVAESDKANNVFSRIVKVLNPPDVRIPSESFIRFERAKDHSQSLAVVASVRNFSNSADYGLFLDDHGTGEAVEVTVYDGNPAKGGKVIGRETISRLLPLEHRNVSVKWDIAQLKGVHTVYVQVHPPANLTRAPGKRAPAAMAVPVDLDAYRSCKGI”, the protein production entry is “failed”.

As for “MKRMHNPAHPGEVLREYLGELTVTNAAAKLGVSRVALSRILNGTNGISADMALRLEDALGTSAEMWAAMQFKYDLWVASQQPRPKITRLHV”, the protein production entry is on record as “failed”.

In the case of “MATRNALRIVSRRFSSGKVLSEEERAAENVFIKKMEQEKLQKLARQGPGEQAAGSASEAKVAGATASASAESGPKVSEDKNRNYAVVAGVVAIVGSIGWYLKAGGKKQPEVQE”, the protein production result is reported as “failed”.

Take “MQVRIERAERIESELEEHVGDQTFVEESRFLEEDEQREGEILDQIIFVDGKRRSFVRITTDEGITGIFAELCVGAVIWDREGGTKTLFSPDKPPVKERVLGFSQSFQEEGYEEVGGILFKVVKEGKDAMQSIDLYMRSLEIEEVRKHMDKNILIVKDGPAARELPFEENVGPIGLVKNIGVTELSKEDFKKLRFLKKGKRSKMFVSSRETPLKKVGAYVKLIDGEGIRGLVRLETYVKDDNQIPYIRKVFDDLAKTLPHLTADLPIPRLPENILPIQFLEENLSYYLTDKNYMNTRLFAYIGR”: the protein production result was “not failed”.

Regarding “MGKEYVVIGLGRFGGSIVRELNALDMDVMAIDHDENRVNEYSDIATHAVVADTTDEAVMKSLGIRNFDHVIVAIGENIQSSTLTTLILKELGVKKVTAKAQNDYHAKILNKIGADTVVHPERDMGRRIAHNVASASVLDYLELADEHSIVELKATEKMAGQSIIDLDIRAQYGINIIAIKRGKEFIISPNPNINLEIGDILIMIGHDNDLNRFEKNIATR”, the protein production result is given as “failed”.

“PRLYKEPSAKSNKFIIHNALSHCCLAGKVNEPQKNRILEEIEKSKANHFLILFRDSSCQFRALYTLSGETEELSRLAGYGPRTVTPAMVEGIYKYNSDRKRFTQIPAKTMSMSVDAFTIQGHLWQSKK”: the protein production result was “not failed”.

Take “MSDAMPLDQTLEQLTQDEWIDIPQGWSQGRTIYGGLVAGLLMHKALSVMNDESKNLLSTSITFVGPVNEGRVRLTVEILRQGKSVTTIEARLWQDQAVQTILIASFGQPRSSEIFVLNLPEAPDYLSPEQFSRMPFVKMMPECYQQFDLRWAEGHYPMTQQAPDFGGWCRYDIQKHSPRALNVADLLILMDIWPPGVLPMFQTIAPASSLTWHLTFVRPVAYELHDWFKYQVVTQHAAFGYATEYAHLWDAQNRLIAISRQTVTVFA”: the protein production result is “failed”.

“MGREFLDLFEQWAESYDQSVEGYDEQYRDVFAGYDRILSTVADKAGQVVLEFGIGTGNLTKKLLERGKTVYGIEPSAPMRKKAAEKLGERAVIMDGDFLQFPLPPEPIDTIASTYAFHHLTDAEKDEAIAKYSQLLHSGGKIVFADTAFRDKEAFRQTVEAARARGFHDLADDLEREYYTTLDVLASLFANHGFSVSFAQQNAFVWVMEAVKQTTLEHHHHHH”: the protein production entry was “not failed”.

In the case of “MTNAISNFTIYAFVALGGACGASLRFYISQLVLNWLGKGFPFATLMVNIIGSFTMGLLYQLIEHEILNVSVHRTLIGIGFLGAFTTFSTFSLDSLLLLQQGDVLKAAINILLNVSLCIAAAALGMFMVTTLTK”, the protein production entry is “failed”.

Regarding “MASLSQLSSHLNYTCGAENSTGASQARPHAYYALSYCALILAIVFGNGLLCMAVLKERALQTTTNYLVVSLAVADLLVATLVMPWVVYLEVTGGVWNFSICCDVFVTLDVMMCTASILNLCAISIDRYTAVVMPVHYQHGTGQSSCRRVALMITAVWVLAFAVSCPLLFGFNTTGNPTVCSISNPDFVIYSSVVSFYLPFGVTVLVYARIYVVLKQRRRKRILTRQNSQCNSVRPGFPQQTLSPDPAHLELKRYYSICQDTALGGPGFQERGGELKREEKTRNSLSPTIAPKLSLEVRKLSNGRLSTSLKLGPLQPRGVPLREKKATQMVAIVLGTFIVCWLPFFLTHVLNTHCQTCHVSPELYSATTWLGYVNSALNPVIYTTFNIEFRKAFLKILSC”, the protein production entry is “not failed”.

As for “MKNFWKKYHKWVGLFFSFFILMFCFSGIVLNHRTLFSKAEVSRNWMPESYHYKNWNNGIIKGTLRLPDGKILAYGNAGVWKTDSCFATFADFNRGLAEGIDNRKISNIVRVANNDIWCAGLYSIYLLNHDSWKEYPIAGNDERISDITQRGDTLVILTRSYLYTSVSPYDEFRKTELKTPENYSPKTSLFRTIWLLHSGELFGTPGKLAVDFLGVVLIVLSATGIIYTLLPPFIRRRHRKRLPVKTQAKALKTSLNWHNKLGTWLIGLTLLLSVTGMCLRPPLMIPFVLVNTRPVPGSTLDSDNPWHDKLRSIRWDASRNVWLLSSSMGFYRINDLQLPPVKLKQTPPVSPMGVNVFHPQSPDEWLIGSFSGLFVWNPSTGTVLDYYTGQPPAAVHGRPLGGSLVNGFTDDLVTREVIFEYDNGARNKENNLVLPAMPDLIKQQPMSLWNFCLELHVGRCYSPFLGVFSDLFVFISGLLLTLILISGYIVYKRHHKRSKKIRMH”, the protein production result is “failed”.

As to “MGCGFSRQHVVKTNVSSFDRELLDLKIQRDSLQQYEQRLSDSLKNYIKLARRLVAENQRQQALVVLQVKHALQKSIEKAQNMRFNLEQVLSEIELKQIETDYVLKLRTGTKLLQSIQKTLSIEEIEHLLEETKEAIEFQNKVTEVLGSFSLMEIDESCEEELEQLETAMFPPVPKRLEKTMTPQVTENMQVKSETAKEYSKQESILLPS”, the protein production entry was “not failed”.

As for “MSLSLLLQQHLSQPWRFLDHTSFGPTFQALQSFAYDDTLCTSIGKSQSPPTLRAWVHHNTVVLGIQDSRLPQIKAGIEALKGFQHDVIVRNSGGLAVVLDSGILNLSLVLKEEKGFSIDDGYELMYELICSMFQDHREQIEAREIVGSYCPGSYDLSIDGKKFAGISQRRIRGGVAVQIYLCVSGSGAERAKMIRTFYDKAVAGQPTKFVYPRIKPETMASLSELLGQPHNVSDVLLKALMTLQQHGASLLTESLSADEWLLYEQHFARISERNEKLLAEEGHHHHHH”, the protein production result is listed as “not failed”.

Consider “MIIMLSEYLEEFKEYLERFKNIDINFSDVLKMSKKFIIWRLKQIFGDSSTIFTNISSEITIFDKIFQMIDYDIDGEVEKRLPKDESRFMIGVRREKEIEIKKEIITNLLDFLLIILLSHTPYFNAFVRKYAEIKKIKVIKKLPNKISVWEFIKIASRSRINDLHLERLDLENGFVDITKIKEIFAKEIIRVELMKLGENIKKRKLPDDSVVKELLNEISDYLKDKVKYEQISGIKALNYKGNIPLEWHPPCIRGILNDILSGGSPSHYARRSFVVYWFCAKFNPNLRPLDKNGNLVNVSATDIASEEEIERFIDELIEMLFKNVEDFDEKKTRYYIMHNIGYKVGHGRLTHCEYCKNWQDDGGKGLSYYCKPDELCKKKFIIHPLDYLCYNINKHLKKERFKKIKKEDKNGDNKLEHHHHHH”, for which the protein production entry was “not failed”.
